Experimental data from publication PMC11100808.

Molecular target: biotinylated human CK1δ catalytic domain (CK1δ ΔC) (human) (UniProt P48730)
Assay: BLI

In the case of “LIN-42 CK1BD + Tail (from UniProt Q65ZG8 402-597) (domain or fragment)”, the Kd is reported as 209 nM.
